Results as given in PMC10644352, “Bromodomain Factor 5 as a Target for Antileishmanial Drug Discovery” (ACS Infectious Diseases, 2023).
No end group written: not given here.

Legend:
[1] = molecular target: T1, Leishmania donovani bromodomain factor 5 (LdBDF5) first bromodomain, recombinant BD5.1 (Leishmania donovani); experiment: fluorescence polarisation; 800 nM 5-FAM peptide, protein 0-300 μM; 20 mM HEPES, 500 mM NaCl, 1 mg/mL BSA, pH 7.5; 30 min at room temperature; one-site-specific binding fit (two-site for BD5T); n = 3; details: both partners purified
T1 construct: L. donovani BDF5 (LDBPK_091320), construct with the first bromodomain; Plasmid from the Structural Genomics Consortium, pET-15-MHL backbone (Addgene plasmid #26092), which encodes a cleavable His-tag; His-tags were not cleaved for BD5.1; Expected mass 15.2 kDa; Monomer by SEC-MALLS; also called LdBDF5 BD5.1; LdBDF5.1; source: E. coli Rosetta2 (DE3) pLysS, purified (IMAC, SEC)

[2] = molecular target: T2, Leishmania donovani bromodomain factor 5 (LdBDF5) second bromodomain, recombinant BD5.2 (Leishmania donovani); experiment: as above; details: both partners purified
T2 construct: L. donovani BDF5 (LDBPK_091320), construct with the second bromodomain; His-tags were not cleaved for BD5.2; Expected mass 17.9 kDa; Monomer by SEC-MALLS; also called LdBDF5 BD5.2; source: E. coli Rosetta2 (DE3) pLysS, purified (IMAC, SEC)

AK(Ac)GK(Ac)RSADAK(Ac)SSQK(Ac)R (also: 5-FAM at N-terminus or via ethylene diamine linker at C-terminus) [5-FAM-labeled H4(1-15)K2Ac K4Ac K10Ac K14Ac peptide of L. donovani histone H4]
Kd [1]: 137 µM
Kd [2]: 353 µM
